We go through 2 substances from patent US20030103975A1.

Assay [1] addresses soluble αvβ3 integrin heterodimer (Chemicon International) (UniProt P06756). The assay is described as follows: competition ELISA: soluble αvβ3 (5 ng/µl) on wells coated with G^919-1207 (the competitor), with increasing fibronectin. (In general: An ELISA detects its analyte on a solid surface through an enzyme-linked reagent.)
The target of assay [2] is α3β1 integrin on human endothelial cells (TrHBMEC) (human) (UniProt P26006). The assay is described as follows: cell-based or functional assay.

As a reminder, the IC50 is the concentration at which inhibition is half-maximal.

Sequence of α3β1 integrin on human endothelial cells (TrHBMEC) (human) (P26006 33-1051, chain 1 of 2): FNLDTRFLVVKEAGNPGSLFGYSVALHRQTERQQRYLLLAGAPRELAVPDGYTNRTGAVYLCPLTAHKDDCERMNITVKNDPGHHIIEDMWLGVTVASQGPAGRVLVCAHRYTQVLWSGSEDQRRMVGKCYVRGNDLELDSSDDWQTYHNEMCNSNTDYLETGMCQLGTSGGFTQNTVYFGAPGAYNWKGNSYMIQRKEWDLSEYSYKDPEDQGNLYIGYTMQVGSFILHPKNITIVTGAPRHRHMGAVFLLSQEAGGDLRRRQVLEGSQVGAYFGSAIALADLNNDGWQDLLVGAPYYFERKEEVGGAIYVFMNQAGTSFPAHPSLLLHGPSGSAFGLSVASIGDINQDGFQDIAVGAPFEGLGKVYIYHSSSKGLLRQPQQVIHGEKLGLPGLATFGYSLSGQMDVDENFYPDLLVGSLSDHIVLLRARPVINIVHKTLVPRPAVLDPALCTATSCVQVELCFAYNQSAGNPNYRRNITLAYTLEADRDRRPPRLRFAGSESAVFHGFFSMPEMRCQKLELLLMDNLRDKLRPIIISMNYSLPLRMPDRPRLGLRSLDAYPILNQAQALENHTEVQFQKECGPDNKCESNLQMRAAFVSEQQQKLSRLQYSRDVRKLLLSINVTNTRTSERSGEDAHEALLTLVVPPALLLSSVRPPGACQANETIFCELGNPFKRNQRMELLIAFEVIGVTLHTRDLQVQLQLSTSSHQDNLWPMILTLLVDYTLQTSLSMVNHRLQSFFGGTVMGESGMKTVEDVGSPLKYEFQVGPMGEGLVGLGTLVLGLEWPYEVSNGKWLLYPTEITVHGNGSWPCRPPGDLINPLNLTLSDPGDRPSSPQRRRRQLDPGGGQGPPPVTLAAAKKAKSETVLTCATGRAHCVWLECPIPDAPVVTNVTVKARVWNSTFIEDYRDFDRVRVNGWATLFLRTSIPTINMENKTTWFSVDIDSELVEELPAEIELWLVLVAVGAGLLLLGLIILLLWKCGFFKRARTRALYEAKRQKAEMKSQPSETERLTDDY
Sequence of α3β1 integrin on human endothelial cells (TrHBMEC) (human) (P05556 21-798, chain 2 of 2, further chain): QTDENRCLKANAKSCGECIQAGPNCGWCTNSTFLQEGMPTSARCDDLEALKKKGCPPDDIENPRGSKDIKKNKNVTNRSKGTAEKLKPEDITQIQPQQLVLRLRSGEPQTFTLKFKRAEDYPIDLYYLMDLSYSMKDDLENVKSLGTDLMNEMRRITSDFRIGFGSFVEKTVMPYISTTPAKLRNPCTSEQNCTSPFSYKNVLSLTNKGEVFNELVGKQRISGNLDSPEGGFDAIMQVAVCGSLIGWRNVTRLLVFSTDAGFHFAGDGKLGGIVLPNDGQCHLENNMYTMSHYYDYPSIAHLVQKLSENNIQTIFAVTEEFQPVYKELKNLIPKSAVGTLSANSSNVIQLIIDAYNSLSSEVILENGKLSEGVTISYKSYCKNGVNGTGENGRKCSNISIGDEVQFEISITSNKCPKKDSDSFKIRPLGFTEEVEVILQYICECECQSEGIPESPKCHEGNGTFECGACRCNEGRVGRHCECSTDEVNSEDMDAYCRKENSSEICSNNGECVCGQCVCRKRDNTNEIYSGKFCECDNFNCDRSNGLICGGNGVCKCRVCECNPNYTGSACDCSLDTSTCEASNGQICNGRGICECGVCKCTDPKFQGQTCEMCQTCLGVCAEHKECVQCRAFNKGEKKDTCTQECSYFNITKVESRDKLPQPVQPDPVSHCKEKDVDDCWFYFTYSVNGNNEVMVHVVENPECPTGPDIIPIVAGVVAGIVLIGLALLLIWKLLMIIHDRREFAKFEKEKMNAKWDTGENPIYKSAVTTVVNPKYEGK
Sequence of soluble αvβ3 integrin heterodimer (Chemicon International) (P06756 31-992, chain 1 of 2): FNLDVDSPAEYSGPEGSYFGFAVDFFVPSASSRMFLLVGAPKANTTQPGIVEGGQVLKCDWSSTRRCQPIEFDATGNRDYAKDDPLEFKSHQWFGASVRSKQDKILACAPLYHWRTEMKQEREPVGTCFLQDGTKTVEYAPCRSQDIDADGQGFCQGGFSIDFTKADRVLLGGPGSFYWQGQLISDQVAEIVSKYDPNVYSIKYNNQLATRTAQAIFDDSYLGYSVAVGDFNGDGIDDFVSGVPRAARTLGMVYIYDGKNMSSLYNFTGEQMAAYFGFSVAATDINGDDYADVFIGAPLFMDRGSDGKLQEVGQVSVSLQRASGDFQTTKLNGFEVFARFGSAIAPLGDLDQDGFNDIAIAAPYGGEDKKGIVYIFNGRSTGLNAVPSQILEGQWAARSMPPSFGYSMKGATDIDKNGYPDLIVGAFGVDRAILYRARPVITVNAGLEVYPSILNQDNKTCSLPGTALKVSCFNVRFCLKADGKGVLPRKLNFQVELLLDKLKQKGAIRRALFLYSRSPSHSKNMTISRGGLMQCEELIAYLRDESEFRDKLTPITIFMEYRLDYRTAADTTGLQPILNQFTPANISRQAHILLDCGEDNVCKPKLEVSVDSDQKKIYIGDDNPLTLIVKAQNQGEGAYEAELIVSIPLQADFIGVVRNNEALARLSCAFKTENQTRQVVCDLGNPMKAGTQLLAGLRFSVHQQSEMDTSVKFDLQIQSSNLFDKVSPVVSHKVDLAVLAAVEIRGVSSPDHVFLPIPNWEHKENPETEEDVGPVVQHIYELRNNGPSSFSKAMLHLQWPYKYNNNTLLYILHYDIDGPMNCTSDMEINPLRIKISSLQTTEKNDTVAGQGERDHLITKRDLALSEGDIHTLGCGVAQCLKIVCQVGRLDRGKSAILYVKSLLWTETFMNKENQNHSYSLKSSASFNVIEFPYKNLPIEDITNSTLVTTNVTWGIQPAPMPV
Sequence of soluble αvβ3 integrin heterodimer (Chemicon International) (P05106 27-718, chain 2 of 2, further chain): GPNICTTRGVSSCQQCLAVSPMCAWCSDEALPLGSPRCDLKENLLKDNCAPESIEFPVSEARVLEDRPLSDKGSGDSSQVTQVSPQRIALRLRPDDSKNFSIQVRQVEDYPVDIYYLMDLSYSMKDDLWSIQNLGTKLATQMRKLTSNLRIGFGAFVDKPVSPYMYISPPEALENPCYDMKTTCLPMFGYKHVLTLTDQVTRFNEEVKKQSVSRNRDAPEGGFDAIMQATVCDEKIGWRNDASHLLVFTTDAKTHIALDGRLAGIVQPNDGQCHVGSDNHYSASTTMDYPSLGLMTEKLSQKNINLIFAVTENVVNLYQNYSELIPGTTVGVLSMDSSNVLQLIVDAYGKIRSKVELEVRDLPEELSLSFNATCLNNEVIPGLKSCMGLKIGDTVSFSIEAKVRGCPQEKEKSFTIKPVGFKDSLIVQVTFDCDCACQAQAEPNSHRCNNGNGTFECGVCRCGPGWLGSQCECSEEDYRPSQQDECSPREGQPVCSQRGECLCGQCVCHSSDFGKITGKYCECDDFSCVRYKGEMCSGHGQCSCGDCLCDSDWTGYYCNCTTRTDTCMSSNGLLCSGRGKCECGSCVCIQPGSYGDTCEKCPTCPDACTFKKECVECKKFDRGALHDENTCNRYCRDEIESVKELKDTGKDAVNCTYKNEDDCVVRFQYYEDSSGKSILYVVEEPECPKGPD

“human fibronectin (BD Biosciences), P02751 32-2296 (ligand)”: the IC50 in assay [1] stood at 84 nM.
As for “laminin 5 derived from conditioned medium of cultured epithelial cells (ligand)”, in assay [2], the inhibition of endothelial cell adhesion to laminin 5 by a combination of antibodies against the α3 and α6 integrin subunits worked out at 40%; the inhibition of endothelial cell adhesion to laminin 5 by antibody 6S6 against β1 integrin is above 80%; the inhibition of endothelial cell adhesion to laminin 5 by antibody LM609 against αvβ3 integrin amounted to 60%.
